Assay results as given in publication PMC9352680, “A comprehensive thermodynamic model for RNA binding by the Saccharomyces cerevisiae Pumilio protein PUF4”.
Residue numbers refer to the chain shown, from its start. In names and notes the source's numbering stands.

T1: PUF4 RNA-binding domain (Saccharomyces cerevisiae, UniProt P25339 537-888)
T1 sequence: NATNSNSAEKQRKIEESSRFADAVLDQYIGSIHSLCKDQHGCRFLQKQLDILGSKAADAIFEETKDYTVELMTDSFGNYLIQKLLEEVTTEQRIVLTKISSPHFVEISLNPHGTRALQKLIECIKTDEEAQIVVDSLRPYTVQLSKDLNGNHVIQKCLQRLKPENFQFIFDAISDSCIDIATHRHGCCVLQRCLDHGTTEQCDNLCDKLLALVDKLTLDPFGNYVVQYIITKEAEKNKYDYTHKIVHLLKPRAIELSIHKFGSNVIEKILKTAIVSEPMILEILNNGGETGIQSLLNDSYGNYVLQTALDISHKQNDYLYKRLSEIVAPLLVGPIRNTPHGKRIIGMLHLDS

B1: Ic_S4_P4E.1_K4.1_C4.1_H4.1_A4.1_[T5C]_[A6T]_F4.1_[T8C]_[A9T]_T4.1 (ssRNA)
RNA: UUUGACAACUGAUCGUUCUUUCUUGUACUUCUUUCUUUCUCGAUCAGUUGUCUUU
B2: Ic_S4_P4E.1_K4.1_C4.1_H4.1_A4.1_[T5C]_F4.1_[T8G]_[A9C]_T4.1 (ssRNA)
RNA: B1 RNA with U29A, C31G, U32C
B3: Ic_S4_P4E.1_K4.1_C4.1_H4.1_A4.1_[T5C]_[T7A]_F4.1_[T8C]_[A9C]_T4.1 (ssRNA)
RNA: B1 RNA with U29A, U30A, U32C
B4: Ic_S4_P4E.1_K4.1_C4.1_H4.1_A4.1_[T5C]_[T7A]_F4.1_[A9C]_T4.1 (ssRNA)
RNA: B1 RNA with U29A, U30A, C31U, U32C
B5: Ic_S4_P4E.1_K4.1_C4.1_H4.1_A4.1_[T5C]_F4.1_[T8A]_T4.1 (ssRNA)
RNA: B1 RNA with U29A, C31A, U32A
B6: Ic_S4_P4E.1_K4.1_C4.1_H4.1_A4.1_[T5A]_[A6C]_[T7C]_F4.1_[T8G]_[A9C]_T4.1 (ssRNA)
RNA: B1 RNA with C28A, U29C, U30C, C31G, U32C
B7: Ic_S4_P4E.1_K4.1_C4.1_H4.1_A4.1_[T5A]_[A6C]_[T7G]_F4.1_[T8G]_[A9C]_T4.1 (ssRNA)
RNA: B1 RNA with C28A, U29C, U30G, C31G, U32C
B8: Ic_S4_P4E.1_K4.1_C4.1_H4.1_A4.1_[T5A]_[A6C]_[T7G]_F4.1_[T8C]_[A9T]_T4.1 (ssRNA)
RNA: B1 RNA with C28A, U29C, U30G
B9: Ic_S4_P4E.1_K4.1_C4.1_H4.1_A4.1_[T5A]_[A6C]_[T7G]_F4.1_[A9C]_T4.1 (ssRNA)
RNA: B1 RNA with C28A, U29C, U30G, C31U, U32C
B10: Ic_S4_P4E.1_K4.1_C4.1_H4.1_A4.1_[T5C]_F4.1_[T8A]_[A9G]_T4.1 (ssRNA)
RNA: B1 RNA with U29A, C31A, U32G
B11: Ic_S4_P4E.1_K4.1_C4.1_H4.1_A4.1_[T5A]_[A6C]_F4.1_[A9G]_T4.1 (ssRNA)
RNA: B1 RNA with C28A, U29C, C31U, U32G
B12: Ic_S4_P4E.1_K4.1_C4.1_H4.1_A4.1_[T5C]_F4.1_[T8C]_[A9T]_T4.1 (ssRNA)
RNA: B1 RNA with U29A
B13: Ic_S4_P4E.1_K4.1_C4.1_H4.1_A4.1_[T5C]_F4.1_[A9G]_T4.1 (ssRNA)
RNA: B1 RNA with U29A, C31U, U32G
B14: Ic_S4_P4E.1_K4.1_C4.1_H4.1_A4.1_[T5A]_[A6C]_F4.1_[T8G]_[A9T]_T4.1 (ssRNA)
RNA: B1 RNA with C28A, U29C, C31G
B15: Ic_S4_P4E.1_K4.1_C4.1_H4.1_A4.1_[T5C]_F4.1_[T8A]_[A9T]_T4.1 (ssRNA)
RNA: B1 RNA with U29A, C31A
B16: Ic_S4_P4E.1_K4.1_C4.1_H4.1_A4.1_[T5A]_[A6C]_[T7C]_F4.1_[A9T]_T4.1 (ssRNA)
RNA: B1 RNA with C28A, U29C, U30C, C31U
B17: Ic_S4_P4E.1_K4.1_C4.1_H4.1_A4.1_[T5C]_[T7A]_F4.1_[T8A]_T4.1 (ssRNA)
RNA: B1 RNA with U29A, U30A, C31A, U32A
B18: Ic_S4_P4E.1_K4.1_C4.1_H4.1_A4.1_[T5A]_[A6C]_F4.1_[T8A]_[A9T]_T4.1 (ssRNA)
RNA: B1 RNA with C28A, U29C, C31A
B19: Ic_S4_P4E.1_K4.1_C4.1_H4.1_A4.1_[T5A]_[A6C]_[T7G]_F4.1_[A9T]_T4.1 (ssRNA)
RNA: B1 RNA with C28A, U29C, U30G, C31U
B20: Ic_S4_P4E.1_K4.1_C4.1_H4.1_A4.1_[T5A]_[A6C]_[T7A]_F4.1_[T8G]_[A9C]_T4.1 (ssRNA)
RNA: B1 RNA with C28A, U29C, U30A, C31G, U32C
B21: Ic_S4_P4E.1_K4.1_C4.1_H4.1_A4.1_[T5A]_[A6C]_[T7C]_F4.1_[T8C]_[A9T]_T4.1 (ssRNA)
RNA: B1 RNA with C28A, U29C, U30C
B22: Ic_S4_P4E.1_K4.1_C4.1_H4.1_A4.1_[T5A]_[A6C]_F4.1_[T8C]_[A9G]_T4.1 (ssRNA)
RNA: B1 RNA with C28A, U29C, U32G
B23: Ic_S4_P4E.1_K4.1_C4.1_H4.1_A4.1_[T5A]_[A6C]_[T7A]_F4.1_[T8C]_[A9C]_T4.1 (ssRNA)
RNA: B1 RNA with C28A, U29C, U30A, U32C
B24: Ic_S4_P4E.1_K4.1_C4.1_H4.1_A4.1_[T5A]_[A6C]_[T7C]_F4.1_[A9G]_T4.1 (ssRNA)
RNA: B1 RNA with C28A, U29C, U30C, C31U, U32G
B25: Ic_S4_P4E.1_K4.1_C4.1_H4.1_A4.1_[T5C]_[T7C]_F4.1_[A9T]_T4.1 (ssRNA)
RNA: B1 RNA with U29A, U30C, C31U
B26: Ic_S4_P4E.1_K4.1_C4.1_H4.1_A4.1_[T5C]_[A6T]_F4.1_[A9T]_T4.1 (ssRNA)
RNA: B1 RNA with C31U
B27: Ic_S4_P4E.1_K4.1_C4.1_H4.1_A4.1_[T5A]_[A6C]_[T7G]_F4.1_[T8G]_[A9T]_T4.1 (ssRNA)
RNA: B1 RNA with C28A, U29C, U30G, C31G
B28: Ic_S4_P4E.1_K4.1_C4.1_H4.1_A4.1_[T5C]_[T7C]_F4.1_[T8A]_[A9G]_T4.1 (ssRNA)
RNA: B1 RNA with U29A, U30C, C31A, U32G

These binders were tested against T1, PUF4 RNA-binding domain (assay: Mg; RNA-MaP; 20 mM Na-HEPES pH 7.4, 30 mM KOAc, 0.75 mM MgCl2, 0.1% Tween-20, 5% glycerol, 0.1 mg/mL BSA, 2 mM DTT; 25 C; 0.0125-409.6 nM protein). Conditions: tags: N-His6-TEV cleaved; C-SNAP kept, Cy3B-labelled; label: tethered on chip by stalled RNA polymerase.

| Binder | Kd [nM] |
| --- | --- |
| UCUCUUUGUAUCUCAUCUCUU (ssRNA) [Ib_S1_P4E.1_K4.1_C4.1_H4.1_A4.1_[A6C]_F4.1_[T8C]_T4.1] | 34.6 |
| B1 | 32.5 |
| B2 | 14.3 |
| B3 | 99.9 |
| B4 | 22.1 |
| B5 | 2.32 |
| B6 | 927 |
| B7 | > 2300 |
| B8 | 205 |
| B9 | 919 |
| B10 | 11 |
| B11 | 84.8 |
| B12 | 11.1 |
| B13 | 3.85 |
| B14 | 95.2 |
| B15 | 1.55 |
| B16 | 31.1 |
| B17 | 13.8 |
| B18 | 49.4 |
| B19 | 84.3 |
| B20 | 879 |
| B21 | 225 |
| B22 | 577 |
| B23 | 215 |
| B24 | 44.1 |
| B25 | 4.37 |
| B26 | 6.37 |
| B27 | 1290 |
| B28 | 270 |
